{"source": "patent US20250195607A1", "about": "(BIOLINERX, published 2025)", "biological_target": "CXCR4 chemokine receptor (mouse, UniProt P70658 1-359)", "sequence (P70658 whole entry)": "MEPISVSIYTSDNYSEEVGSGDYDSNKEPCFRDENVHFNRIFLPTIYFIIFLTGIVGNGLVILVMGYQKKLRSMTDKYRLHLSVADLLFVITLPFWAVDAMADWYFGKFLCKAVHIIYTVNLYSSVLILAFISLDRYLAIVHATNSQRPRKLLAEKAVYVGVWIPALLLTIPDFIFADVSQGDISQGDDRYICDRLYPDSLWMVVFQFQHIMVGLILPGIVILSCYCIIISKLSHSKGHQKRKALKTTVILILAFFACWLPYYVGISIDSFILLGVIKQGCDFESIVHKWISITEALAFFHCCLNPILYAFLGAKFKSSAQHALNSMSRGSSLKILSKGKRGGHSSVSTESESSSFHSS", "test": "cell-based or functional assay", "note": "Bridges are numbered along the chain shown (N, C = ends). [ ]: non-standard residue; d: D form. The star is where a group is joined. 2Nal = N[C@@H](Cc1ccc2ccccc2c1)C(=O)O; Benzoyl(4-F) = O=C(c1ccc(F)cc1)*; Cit = NC(=O)NCCC[C@H](N)C(=O)O", "data": [{"binder": "{Benzoyl(4-F)}-RR[2Nal]CY[Cit]K[dK]PYR[Cit]CR-NH2 (disulfide 4-13 (inferred))", "values": [{"measurement": "Fold increase in neutrophil number in peripheral blood (mice, 5 mg/kg s.c., 2 hours after injection, flow cytometry); BL-8040 composition of Example 1", "value": 9.9, "unit": "fold"}, {"measurement": "Fold increase in neutrophil number in peripheral blood (mice, 5 mg/kg s.c., 2 hours after injection, flow cytometry); BL-8040 composition of Reference Example 1", "value": 5.6, "unit": "fold"}]}]}
